How the values were obtained:
[1] = target: Rad51 (wild type);Rad52 (wild type);RPA (wild type) (Saccharomyces cerevisiae;Saccharomyces …, UniProt P25454;P06778;P22336;P26754;P26755 1-400;1-471;1-621;1-273;1-122, ||); experiment: bead pull-down
[2] = target: RPA (wild type);Rad52 (wild type) (Saccharomyces cerevisiae;Saccharomyces …, UniProt P22336;P26754;P26755;P06778 1-621;1-273;1-122;1-471, |); experiment: bead pull-down
Sequence of RPA (wild type);Rad52 (wild type) (P22336 whole entry, chain 1 of 4): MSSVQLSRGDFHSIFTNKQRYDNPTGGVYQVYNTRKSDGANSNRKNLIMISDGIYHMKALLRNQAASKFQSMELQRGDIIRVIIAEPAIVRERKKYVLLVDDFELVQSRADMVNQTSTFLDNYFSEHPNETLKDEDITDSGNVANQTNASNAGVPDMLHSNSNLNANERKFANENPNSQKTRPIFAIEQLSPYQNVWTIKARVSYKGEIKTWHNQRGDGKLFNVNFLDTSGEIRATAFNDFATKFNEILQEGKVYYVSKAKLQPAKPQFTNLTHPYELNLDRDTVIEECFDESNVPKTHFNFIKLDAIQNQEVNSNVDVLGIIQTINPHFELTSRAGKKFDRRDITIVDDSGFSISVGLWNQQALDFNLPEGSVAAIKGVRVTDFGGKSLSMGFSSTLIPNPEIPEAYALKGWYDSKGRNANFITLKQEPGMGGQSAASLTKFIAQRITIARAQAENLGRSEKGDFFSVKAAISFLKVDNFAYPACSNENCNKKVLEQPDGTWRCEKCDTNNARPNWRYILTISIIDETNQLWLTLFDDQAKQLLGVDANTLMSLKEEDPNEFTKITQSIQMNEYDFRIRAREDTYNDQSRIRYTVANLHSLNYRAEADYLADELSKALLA
Sequence of RPA (wild type);Rad52 (wild type) (P26754 whole entry, chain 2 of 4): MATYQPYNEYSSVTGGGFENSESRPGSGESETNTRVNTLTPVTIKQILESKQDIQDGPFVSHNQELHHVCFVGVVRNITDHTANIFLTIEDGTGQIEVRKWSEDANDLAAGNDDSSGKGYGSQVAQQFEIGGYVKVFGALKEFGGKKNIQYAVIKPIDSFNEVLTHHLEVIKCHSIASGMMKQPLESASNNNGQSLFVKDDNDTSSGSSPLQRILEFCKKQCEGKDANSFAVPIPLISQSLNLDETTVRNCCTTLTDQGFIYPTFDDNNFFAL
Sequence of RPA (wild type);Rad52 (wild type) (P26755 whole entry, chain 3 of 4): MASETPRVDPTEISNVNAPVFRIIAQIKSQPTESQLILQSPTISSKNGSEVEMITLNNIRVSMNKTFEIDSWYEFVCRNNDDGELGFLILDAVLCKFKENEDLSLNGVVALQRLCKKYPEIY
Sequence of RPA (wild type);Rad52 (wild type) (P06778 whole entry, chain 4 of 4): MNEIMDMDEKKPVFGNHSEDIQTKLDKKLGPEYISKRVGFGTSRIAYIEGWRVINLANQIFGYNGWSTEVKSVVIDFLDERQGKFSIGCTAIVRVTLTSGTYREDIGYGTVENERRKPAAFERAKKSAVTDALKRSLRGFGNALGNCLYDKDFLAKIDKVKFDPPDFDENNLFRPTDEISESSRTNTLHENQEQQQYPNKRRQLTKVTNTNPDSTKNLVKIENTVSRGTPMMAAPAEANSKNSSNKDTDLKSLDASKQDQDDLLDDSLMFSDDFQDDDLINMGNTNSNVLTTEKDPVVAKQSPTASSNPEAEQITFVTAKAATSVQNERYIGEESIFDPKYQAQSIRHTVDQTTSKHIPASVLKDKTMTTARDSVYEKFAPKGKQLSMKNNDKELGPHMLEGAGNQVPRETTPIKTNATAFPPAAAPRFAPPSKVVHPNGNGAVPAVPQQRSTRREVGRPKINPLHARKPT

B1: 74-nt biotinylated ssDNA oligo (ssDNA)
DNA: TTTTTTGTAAAACGACGGCCAGTGCCAAGCTTGCATGCCTGCAGGTCGACTCTAGAGGATCCCCGGGTACCGAG
modifications: 5' biotin
binding result [1]: binds
binding result [2]: binds

From paper PMC4190069
